{"source": "paper doi:10.1101/2022.05.11.22274678", "about": "(2022)", "key": {"[1]": {"molecular_target": "T1, transketolase (TKT) from Clostridium leptum, TKT peptide 8 peptide on HLA-DQA1*05:01 / HLA-DQB1*03:02 (human)", "T1 peptide": "GHSVEALYCILADRG", "assay": "activation reporter or marker"}, "[2]": {"molecular_target": "T2, insulin B chain peptide on HLA-DQA1*05:01 / HLA-DQB1*03:02 (human)", "T2 peptide": "SHLVEALYLVCGERG", "assay": "activation reporter or marker"}}}
{"binder": "GSE.166H9 (TCR) alpha TRAV3 TRAJ21 CDR3: CAVMYNFNKFYF beta TRBV12-3 TRBJ2-5 CDR3: CASSLGGRETQYF", "values": [{"measurement": "binding result", "setting": "[1]", "result": "recognises"}, {"measurement": "binding result", "setting": "[2]", "result": "recognises"}]}
